Data from the supplement of paper PMC9170038.

System: MS2 coat protein
Assay: apparent KD of MS2 coat protein; designed switch direction (-1 OFF switch, 1 ON switch): -1; higher = weaker reporter binding
In short: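 An oligonucleotide input, 200 uM small-molecule ligand, or no input was present during titration of SNAP-549-labelled MS2 coat protein, which was doubled from 0.7 or 1.5 nM to 3 µM. Designed RNA switches had been transcribed on Illumina chips by stalled E. coli RNA polymerase. Apparent KD per design is the median over clusters of curves fitted to normalised cluster fluorescence.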

[1] = input ligand: microRNA oligo, concentration not stated
[2] = Eterna round: R95, input ligand: microRNA oligo, concentration not stated
[3] = Eterna round: R95, input ligand: FMN 200 uM
[4] = Eterna round: R95, input ligand: none

ACGCGCAUAGGAUAUGCCGACGGAGAACUCCAGUGACUUCAACAUGAGGAUCACCCAUGUAGAAGGAUGAUGCA [Eternabot (Original) Solution 32] (Eterna round: R97, puzzle: Exclusion 2)
apparent KD of MS2 coat protein (input ligand: FMN 200 uM): 16.8 nM | apparent KD of MS2 coat protein (input ligand: none): 14.8 nM

UGAGUGGUGCGAGGAUAUACAUGAGGAUCACCCAUGUAAACGUGUGAGGCAAAGCCUCACACGAUGUAGAAGGCGCACUACUCU [Mat - Exclusion NG 2 - Mod of JL - D14] (Eterna round: R96, puzzle: Exclusion NG 2)
apparent KD of MS2 coat protein (input ligand: FMN 200 uM): 24.7 nM | apparent KD of MS2 coat protein [1]: 12.4 nM | apparent KD of MS2 coat protein (input ligand: none): 19.5 nM

UGAUCUAGCGGAGGAUAUACAUGAGGAUCACCCAUGUAGACUCCAUGACCGUAGUCGUGGAGUGUGUAGAAGGCCGCUAGAUCU [JL ENG2 3.73] (Eterna round: R96, puzzle: Exclusion NG 2)
apparent KD of MS2 coat protein (input ligand: FMN 200 uM): 15.2 nM | apparent KD of MS2 coat protein [1]: 9.33 nM | apparent KD of MS2 coat protein (input ligand: none): 12 nM

GGAUCUAAGGUGAGGAUAUAGACUCCCAAAUGGAUCUAGAAGGCACUUGAGGAUCACCCAAGUAGUCUAGGGAA [Orered] (Eterna round: R97, puzzle: Brourd's mod of Exclusion 4)
apparent KD of MS2 coat protein (input ligand: FMN 200 uM): 33.6 nM | apparent KD of MS2 coat protein (input ligand: none): 16.9 nM

CGCAAACAUGAGGAUCACCCAUGUGAGGAUAUCAUGCUUCGUAGUAAACUACGAAGUGUGAGAAGGCACGUGCG [Omei Ex1 D4] (Eterna round: R97, puzzle: Exclusion 1)
apparent KD of MS2 coat protein (input ligand: FMN 200 uM): 42.9 nM | apparent KD of MS2 coat protein (input ligand: none): 29.9 nM

GAUCUGACAGGAUAUACAUGAGGAUCACCCAUGUGCGAGCUAGCGAAAGCUAGCUCAGGUAGAAGGGUCAGAUC [Ex3 dot plot directed] (puzzle: Exclusion 3)
apparent KD of MS2 coat protein [2]: 11.6 nM

GAGAAGGUAGGAUAUACGAAGAAAAAGGGUAGAAUAAGAACACAUGAGGAUCACCCAUGUAGAAGGACCAAGAG [Mat - Exclusion 2 - Mod of my Tesla design - D18] (puzzle: Exclusion 2)
apparent KD of MS2 coat protein [3]: 37.1 nM | apparent KD of MS2 coat protein [2]: 18.6 nM | apparent KD of MS2 coat protein [4]: 14.7 nM

GUGUACGGAGGAUAUGCUGGAAUCUAGCGAAGCUAGGUUCCACAUGAGGAUCACCCAUGUAGAAGGUCGUACAC [Dot plot directed A v8] (puzzle: Exclusion 2)
apparent KD of MS2 coat protein [2]: 29.6 nM

AACAAACAUGAGGAUCACCCAUGUCAGGAUAUGCACAAACAAACAAACAAACAAGCAAGCAGAAGGGACACAAC [Amethyst 89] (Eterna round: R96, puzzle: Exclusion 1)
apparent KD of MS2 coat protein (input ligand: FMN 200 uM): 34.7 nM | apparent KD of MS2 coat protein [1]: 22.4 nM | apparent KD of MS2 coat protein (input ligand: none): 24.8 nM

GGAAGGAAGGAACAAGUUAACAUGAGGAUCACCCAUGUUGACUUCAUGUGCACGCAAAGCGUGCAAGCUCGUCUUAU [AK-miRNA-r3-16] (Eterna round: R97, puzzle: Sensor, turn-off variant 1)
apparent KD of MS2 coat protein (input ligand: FMN 200 uM): 18.3 nM | apparent KD of MS2 coat protein (input ligand: none): 17.3 nM

CGAUAUAAGUCAGGAUAUGAGCGCAACUGACGAUCAGAAGGGACACAUGAGGAUCACCCAUGUGAUCUAUCAAUAUUAUACAUC [Prohibition 92 - Jieux - Exclusion NG 1] (Eterna round: R96, puzzle: Exclusion NG 1)
apparent KD of MS2 coat protein (input ligand: FMN 200 uM): 25.5 nM | apparent KD of MS2 coat protein [1]: 16.2 nM | apparent KD of MS2 coat protein (input ligand: none): 21.5 nM

GAUUAUGCGAGCUUUAGGGACAUGAGGAUCACCCAUGUUCGUCUUAUUAGUCUGGAUACACUGACAUACCUAAAUCU [JMF 59] (puzzle: Sensor v3, turn-off variant 1)
apparent KD of MS2 coat protein [3]: 14.8 nM | apparent KD of MS2 coat protein [2]: 20.9 nM | apparent KD of MS2 coat protein [4]: 16.4 nM

AUUAUACAUGUAGGAUAUCUGCACGAUUAGUGCAGAGAAGGACAUGAGGAUCACCCAUGUAGAUCAAUAAUAAUUAAUUUAAUU [ENG1/6-B1] (Eterna round: R96, puzzle: Exclusion NG 1)
apparent KD of MS2 coat protein (input ligand: FMN 200 uM): 500 nM | apparent KD of MS2 coat protein [1]: 122 nM | apparent KD of MS2 coat protein (input ligand: none): 156 nM

CACAAGCUUUUUUGAUGCAUUUUAGUUGGUGUGCUUUUUACAUGAGGAUCACCCAUGUUUAUGAAGCUCGAUCUUUU [JR_SV3TOV2_Sub080] (puzzle: Sensor v3, turn-off variant 2)
apparent KD of MS2 coat protein [3]: 14 nM | apparent KD of MS2 coat protein [2]: 15 nM | apparent KD of MS2 coat protein [4]: 12.8 nM

AAGAAACGAGGAUAUACAGUUGAGUGAGGGAUGUUAGUGUUACAUGAGGAUCACCCAUGUAGAAGGCGUGAGAG [JR_Exclu2_Sub091] (puzzle: Exclusion 2)
apparent KD of MS2 coat protein [3]: 66.4 nM | apparent KD of MS2 coat protein [2]: 32.2 nM | apparent KD of MS2 coat protein [4]: 36.2 nM

AAGUAUAGAGGAUAUAGUGAGUACUACAUGAGGAUCACCCAUGUUCUUCAAAACGUAUUUCUAGAAGGCUGAUAAA [EX-5 Malc#21] (puzzle: Exclusion 5)
apparent KD of MS2 coat protein [3]: 110 nM | apparent KD of MS2 coat protein [2]: 47.8 nM | apparent KD of MS2 coat protein [4]: 59.1 nM

AGUAGUAGUAUCCGAUCCUACAUGAGGAUCACCCAUGUAGCUAGACGUGCGCGCGAUGCUCGUCAGACUACCAGAUG [salish99_TOv1_r3_047] (puzzle: Sensor v3, turn-off variant 1)
apparent KD of MS2 coat protein [3]: 159 nM | apparent KD of MS2 coat protein [2]: 198 nM | apparent KD of MS2 coat protein [4]: 276 nM

UGUGUGUGAGGAUAUACAAUGGGCCCGGGAAACCGGGCCCUACAUGAGGAUCACCCAUGUAGAAGGCGCGCGCG [-39.6, -37.5 kcal A 24%, 0,6bis] (Eterna round: R97, puzzle: Exclusion 2)
apparent KD of MS2 coat protein (input ligand: FMN 200 uM): 47.2 nM | apparent KD of MS2 coat protein (input ligand: none): 73.6 nM

UAUUAAACAAGCAGGUCCCACAUGAGGAUCACCCAUGUGCUCGUCUUAUAACGAUCUGUGGGAAAACCUACGGAUCG [Elimod 18 - Jieux - Sensor, turn-off variant 1] (Eterna round: R97, puzzle: Sensor, turn-off variant 1)
apparent KD of MS2 coat protein (input ligand: FMN 200 uM): 37.7 nM | apparent KD of MS2 coat protein (input ligand: none): 45.1 nM

UACUUCCGAGGAUAUACAUGAGGAUCACCCAUGUGCUUCAGCAUUUUUUGAUGCAUGGGUAGAAGGCGGUAGUU [LRO-Excl3-17] (puzzle: Exclusion 3)
apparent KD of MS2 coat protein [2]: 299 nM

UAUUAACAAGCAAGAUCCUACAUGAGGAUCACCCAUGUGUUCGUCUUAUAAGGUACUGUGACGAAAGUCACGGUACC [Sensor 3, v1 - 75] (puzzle: Sensor v3, turn-off variant 1)
apparent KD of MS2 coat protein [3]: 76 nM | apparent KD of MS2 coat protein [2]: 321 nM | apparent KD of MS2 coat protein [4]: 108 nM

GGAGAAGUAGGAUAUACAUGAGGAUCACCCAUGUUUUAAUUAAUAUAUGGAAUAGUAAGUAGAAGGAUUAAGUU [A finsh] (Eterna round: R97, puzzle: Exclusion 3)
apparent KD of MS2 coat protein (input ligand: FMN 200 uM): 35.4 nM | apparent KD of MS2 coat protein (input ligand: none): 38.4 nM

AUUUAAUUUAAUAAGAUCACAUGAGGAUCACCCAUGUAUAUAUAGGAUAUCAGCUCGUUUAGAGCUGAGAAGGAUAUAUACAUG [ExNG3/8-A2] (Eterna round: R96, puzzle: Exclusion NG 3)
apparent KD of MS2 coat protein (input ligand: FMN 200 uM): 22.6 nM | apparent KD of MS2 coat protein [1]: 20.2 nM | apparent KD of MS2 coat protein (input ligand: none): 36.6 nM

CUUUUGUGAGGAUAUCAGUAGUAGAACAAUAGUACUACUACUGAGAAGGCACAUGAGGAUCACCCAUGUUCCUC [Fiskers Ex 4 Super stable 44 mod 2] (puzzle: Exclusion 4)
apparent KD of MS2 coat protein [2]: 52.3 nM

ACUCGUGCCCGAGGAUAUUACAGCAACCUGGCUUAAGAAGGCGGGACAUGAGGAUCACCCAUGUUCUGCGCAUCGGUCGUCAGA [Anzatete] (Eterna round: R96, puzzle: Exclusion NG 1)
apparent KD of MS2 coat protein (input ligand: FMN 200 uM): 18.8 nM | apparent KD of MS2 coat protein [1]: 9.36 nM | apparent KD of MS2 coat protein (input ligand: none): 13 nM

UGUCAGAUGGUAGGAUAUCCAUAUCGAGUGACCCUUUCCUAACAUGAGGAUCACCCAUGUCGGUGGGAGAAGGGCCGUAUGGUG [salish99_ExNG02_R04_033] (Eterna round: R96, puzzle: Exclusion NG 2)
apparent KD of MS2 coat protein (input ligand: FMN 200 uM): 11.1 nM | apparent KD of MS2 coat protein [1]: 14.2 nM | apparent KD of MS2 coat protein (input ligand: none): 15.2 nM

UCUAGACAUGAGGAUCACCCAUGUGAGGAUAUGAUGCGAUCGUCGAAAGACGAUAGCAUCAGAAGGCACAAAUG [Fiskers Ex 1 - 12] (puzzle: Exclusion 1)
apparent KD of MS2 coat protein [3]: 153 nM | apparent KD of MS2 coat protein [2]: 56.9 nM | apparent KD of MS2 coat protein [4]: 69.9 nM

AAAAGGUAAGGAUAUACAUGCCCAAAACACGUCCUCAGUCCACAUGAGGAUCACCCAUGUAGAAGGUACGAAAA [Ribiesdi] (Eterna round: R97, puzzle: Exclusion 2)
apparent KD of MS2 coat protein (input ligand: FMN 200 uM): 285 nM | apparent KD of MS2 coat protein (input ligand: none): 93.2 nM

AAUCUACAUGUAGGAUAUGCGUGGCGAAGCUAUGCAGAAGGACAUGAGGAUCACCCAUGUUUUAGCGUCUGCGUACAGAUGCGA [Mat - Exclusion NG 1 - Mod of JL - D99] (Eterna round: R96, puzzle: Exclusion NG 1)
apparent KD of MS2 coat protein (input ligand: FMN 200 uM): 269 nM | apparent KD of MS2 coat protein [1]: 24.4 nM | apparent KD of MS2 coat protein (input ligand: none): 27.2 nM

UUCAGACAUGAGGAUCACCCAUGUGAGGAUAUGAUGCGAUCGUCGAAAGACGAUAGCAUCAGAAGGUACAAAUG [Fiskers Ex 1 - 19] (puzzle: Exclusion 1)
apparent KD of MS2 coat protein [2]: 61 nM

AGGAUGUUAGGAUAUCGGAGAUGCGGGAGGAGGUGGAGGUACGAGAAGGAACAUGAGGAUCACCCAUGUGGAAG [JR_Exclu4_Sub045] (puzzle: Exclusion 4)
apparent KD of MS2 coat protein [2]: 18.4 nM

CUGUUUUCCGCAGGAUAUGCUCCUCCAUUACUAGCAGAAGGGCGUUGAACAUGAGGAUCACCCAUGUAUGUAAUUGCUUAUUGC [JR_ExcNG1_Sub072] (Eterna round: R96, puzzle: Exclusion NG 1)
apparent KD of MS2 coat protein (input ligand: FMN 200 uM): 19.2 nM | apparent KD of MS2 coat protein [1]: 14.6 nM | apparent KD of MS2 coat protein (input ligand: none): 19.4 nM

GUGUACAGAGGAUAUGCUUGAAUCUAGCGAAGCUAGGUUCGACAUGAGGAUCACCCAUGUAGAAGGCUGUACAC [Dot plot directed A v3] (puzzle: Exclusion 2)
apparent KD of MS2 coat protein [2]: 13.4 nM

GUGUAGUGAGGAUAUACAUGAGGAUCACCCAUGUGAAUAAGAUAGAAUAAGAUAAAGUGUAGAAGGCAUAGUGU [Excluse me!!! 21 - Jieux - Exclusion 3] (puzzle: Exclusion 3)
apparent KD of MS2 coat protein [2]: 39.3 nM
